In paper PMC4024219:

Molecular target: FKBP-caspase-8 (Site-1 mutant) (human) (UniProt Q14790)

FRB-FLIPL (wt) (from UniProt O15519 188-480)
activity after heterodimerization (with AP21967), relative to Mature caspase-8: 20%
